Data on 21 sequences can be found in the DeepSol protein solubility set.

The data set can be described thus: soluble on expression in E. coli; label from the status in PepcDB or PDB records.
For the sequence “MALNTNQLFAYLNRGDIAEFKFSPLFTTLFFPNVATFSTQNIMLDTLDIEEVTMSAFCSPMVGSQVQRDKGYETSTIKPGYMKPKHEIDPTKTIMRMAGEDPAQLNDPTYRRMRLITGNMRRQINAIKARVEWLAVNAVTTGKNIIEGEGIERYEIDWKIPEKNIIEQADGKKWSEQDKETHYPIYDIELYADQAGCPANVMIMGAEVWRTLRSFKKFRELYDLSRGSESAAELACKNLGEVVSFKGYLGDLALIVYSGKYTDSDGTEKYFLEPDLLVLGNTNNKGLVAYGAIMDQEAVRTGATQNMFYPKNWIEDGDPAIEYVQTHSAPQPVPADIRKFVTVKIA”, the “soluble on expression in E. coli” value is “not soluble”.

Regarding “PPKWKVKKQKLAEKAAREAELTAKKAQARQALSIYLNLPTLDEAVNTLKPWWPGLFDGDTPRLLACGIRDVLLEDVAQRNIPLSHKKLRRAMKAITRSESYLCAMKAGACRYDTEGYVTEHISQEEEVYAAERLDKIRRQNRIKAELQAVLD”, the “soluble on expression in E. coli” value is given as “soluble”.

For “MGSDKIHHHHHHMQRARCYLLGERAVVLELEPPMSLESQQRIWGLAERLNHHEEVLEVIPGMNNLTVLLAHPQQVALDAIERLQRWWEESESLVFDPRDIDIPVIYGGEAGPDLAEVAAHSGLTVSQVVEAHAAAQYVVYFLGFQPGFAYLGGLNEKLHMPRRAEPRLRVPEGSVGIGGAQTGIYPLATPGGWQLIGRTSLTLFNPQTMPPTLLRPGDNVRFLPQKEGVC”, the “soluble on expression in E. coli” value is reported as “not soluble”.

Turning to “MGSDKIHHHHHHMFYRPEDGHGLPHNPFNAVVTPRPIGWISTRSGAGVNNLAPYSFFNAVAYVPPQVMFASTSTKDDQDGTKDSIANIRETGVFCVNVVEYAMRDAMNKTSAALDKGIDEFAHAGLEAVPCETIDCARVAGVPAALECRLTQIVDLPGEANKVAFGEVVGVHLRDDCLVDGVFDVTRYQPLSRLGYRDYAKVSDPFSLSRPDD”, the “soluble on expression in E. coli” value is listed as “not soluble”.

With “NAAQALVNVQTSVIPKTAFAARDFVDYSFPQEQKDKEKRKQQWVKNSHTKNSDVQPFAEFAILEIPLFSKSKVDRKIFNHFIQPAIRTYKQLGDSLNIFANPTLDQLKQNRYYVLGYPFLKNKVSSLFLNQTGKKKGIFRRKYTNIPWKTSYYLN”, the “soluble on expression in E. coli” value is recorded as “not soluble”.

Turning to “MGSDKIHHHHHHVSTQFQGVIPPVITPRHADGSIDTSSLKNVTRHLIDGGVSGLFVLGSSGEVPYMTNAERELVVSTIADANASVGARAVPLIVGANEQTTNRVIEEAKKVIGLGADAIVVTSMYYAIGNAAETETHFRSIHAAVDKPIFAYDVPVRTHFKLPTDLLVRLGRDGVIAGVKDSSGDDVSFRQLLLEAKDIPDFDIFTGHEVVVDGALLGGAQGVVPGLGNVDPAGYRRLFDAAQAGDWATAAREQDRLADLFEIVYAPNGRVSGGAAGLGAFKTALQLMGVIESNTMSQPMLSLNDDEAAAIRTILERNGLV”, the “soluble on expression in E. coli” value is on record as “not soluble”.

For the sequence “HPMCKEHEDEKINIYCLTCEVPTCSMCKVFGIHKACEVAPLQSVFQGQKTE”, the “soluble on expression in E. coli” value is on record as “soluble”.

For the sequence “MLRLDTRFLPGFPEALSRHGPLLEEARRRLLAKRGEPGSMLGWMDLPEDTETLREVRRYREANPWVEDFVLIGIGGSALGPKALEAAFNESGVRFHYLDHVEPEPILRLLRTLDPRKTLVNAVSKSGSTAETLAGLAVFLKWLKAHLGEDWRRHLVVTTDPKEGPLRAFAEREGLKAFAIPKEVGGRFSALSPVGLLPLAFAGADLDALLMGARKANETALAPLEESLPLKTALLLHLHRHLPVHVFMVYSERLSHLPSWFVQLHDESLGKVDRQGQRVGTTAVPALGPKDQHAQVQLFREGPLDKLLALVIPEAPLEDVEIPEVEGLEAASYLFGKTLFQLLKAEAEATYEALAEAGQRVYALFLPEVSPYAVGWLMQHLMWQTAFLGELWEVNAFDQPGVELGKVLTRKRLAG”, the “soluble on expression in E. coli” value is “soluble”.

With “MGSDKIHHHHHHCKPSKDETSSLKTADRKPLVTNLGNNVILPRYVALNTSVNAFDSEVQIFTAAPTIENLTSLRIKFYQAYIDWEYVACFEFGPAAASTVNLGTKTVNAFPADTAVIKNKIVQGVTAIPPTNSAMYSGFPAIDYLLFAKSLTAQQIVDSFTVSSTAVKRCNYLKTVSSDLKARINTTYTNWTASGANFISLYTNSTGIDLGSATSQTVNMLVADVENIKNFKLGIPLNIIQNVVVGDGSTVNPFKCEGYHSDSSLVLAKASIESLRKLYLGIGADGTDGEGFDNYLEAIDRSGLNVQIKNQIALLQAKLDAIPAPISIAIKNPAGKQAVNEAYTETLHLLVLLKVDMASAIGVMISYGDTDGD”, the “soluble on expression in E. coli” value was “not soluble”.

Take “MSLLIDKFGRPVTNLRISLTKECNLNCFYCHREGQQDGERTMTPEEIERIVRIASRLGIRNVKLTGGEPTVRPDIYEIIQRIRPYVVDLSMTTNGTTLYASAEKLKEAGLDRVNISLDTLDRKKYKMITGYDVLDQVLKGIRRATNLFYPVKLNMVVMRGINDDEIWDMIRFAGEVNAILQLIEIEVPREMENSQFFKDFFYPLKPLEEKFEKIAVEIRERKMHRRRKYFLPVDGKMVEVEVVRSMHNTTFCMNCTRLRLTADGYLKTCLLRKDDLIDILGPIRRGATDDELVKIFKRAVQLRKPYWINEGHHHHHH”: the “soluble on expression in E. coli” value is given as “soluble”.

Regarding “MDRNEVRHAWDSVSETYAERRDPTGSDAALLEDLLERLPEAPTVLDVGCGDGARTLANLPPRSVGLDFSRAGLDLAAETVPDSRLVQGDMGSLPVTTDSVDAITAYHAVFHVQRDQHPEVYREFARVLRPGGTVLMTLPSGQFETVRRGWMGGSMFFSAPGRRATLDQLADAGFTETETVTATDPLGSDSEFVFATLADALEHHHHHH”, the “soluble on expression in E. coli” value is “soluble”.

With “MSLARSMTTGRSGTIGVVVGDIENPFFSLAVRGITDVARQAGFTVILINSGEDAAAEKAAIRTLLAKRVDGLIVSPAKENDVEHLHEVIRSGLPLALLDRGSDTLEVDTVLADDRYTAENVTSRLIALGHRRIAYLTACDTPDHRFRTPQDISTGSVRRRIEGYLAVCREAGFIGMEDWVKVGAVTPERTHRIVIETLQSGHRPTAIIASDSIIGLEVFKAHRELGLNIPGDLSLVSFHDADWTSVTTPPVTVVRQPVYELGATAARLLVERLNGEDRAARKVVLKNEVVERASTRAIEGHHHHHH”, the “soluble on expression in E. coli” value was “soluble”.

Turning to “IEEGKIVFAVGGAPNEIEYWKGVIAEFEKKYPGVTVELKRQATDTEQRRLDLVNALRGKSSDPDVFLMDVAWLGQFIASGWLEPLDDYVQKDNYDLSVFFQSVINLADKQGGKLYALPVYIDAGLLYYRKDLLEKYGYSKPPETWQELVEMAQKIQSGERETNPNFWGFVWQGKQYEGLVCDFVEYVYSNGGSLGEFKDGKWVPTLNKPENVEALQFMVDLIHKYKISPPNTYTEMTEEPVRLMFQQGNAAFERNWPYAWGLHNADDSPVKGKVGVAPLPHFPGHKSAATLGGWHIGISKYSDNKALAWEFVKFVESYSVQKGFAMNLGWNPGRVDVYDDPAVVSKSPHLKELRAVFENAVPRPIVPYYPQLSEIIQKYVNSALAGKISPQEALDKAQKEAEELVKQYS”, the “soluble on expression in E. coli” value is on record as “soluble”.

Consider “MEERDRVKITDRLARPLRDLRLSVIDQCNFRCVYCMPAEVFGPNFRFLAEDQLLTVEEMALLAECFVELGVEKIRLTGGEPLLRRDLDALIERLSALPGLRDIGLTTNGVHLVKWAQRLKAAGLKRVNVSLDALDDDIFRKMNGIGVGAAPVLKGIEAALAAGLGVKVNMVVKKGWNDSQIVPMAAYFKDLGIPLRLIEFMDVGTTNGWDYSHVVTKKEMYEQINAMHPLEPVEKEYFGEVASRYRYAGTNVEVGFIASVTETFCQSCTRARISADGKLYTCLFASKGVSLKDKLRAGEGKEEIKALITTVWNRRTDRYSEERTAETAKQRPKIEMSYIGG”, for which the “soluble on expression in E. coli” value is given as “not soluble”.

Regarding “MKLKIVFFGASLAGKSTTVRKLYEILKEKGLVKGEFMSIDTDEKRTLFVEMFLSKIPIDGQEIDFKILTTPGQFRLHPLRKAIMQGVDGLVFTVDSQTGREEINFLVLRETAHVLKDSTWIYTQYPSLFSTTREIFPTHFPLEHHHHHH”, the “soluble on expression in E. coli” value is on record as “not soluble”.

As for “SEQTEVMKPETLEDLIKTLHQIFQSDSINVEEVQNLMESYQSNPQDWMKFAKFDQYRYTRNLVDEGNGKFNLMILCWGEGHGSSIHDHTDSHCFLKLLQGQLKETLFDWPDRKLQSGMKPRGQSVLQENQCAYINDSLGLHRVENVSHTEPAVSLHLYSPPFQSCRTFDQRTGHHNTVKMTFWSKYGERTPYELSVSQENN”, the “soluble on expression in E. coli” value is given as “soluble”.

On to “MGSDKIHHHHHHVSLSFDFSPDFNPLAARMRPASVEEYIGQSHLLGEGKPLRQALLAGKVHSMLLWGPPGTGKTTLAELVARYANAHVERISAVTSGVKEIRAAIEQAKNVAQSRGQRTLLFVDEVHRFNKSQQDAFLPFIEDGTVIFIGATTENPSFEVNNALLSRCRVYLIKRLEDDAIGQILAQANSDEARGLGKRGLLLKAELKSAIARLCDGDARKALNLLELMSDLLPDGGEYNLELLSEVAGHQAAGYDKNGDQYYDLISAVHKSIRGSAPDAALYWFCRILEGGGDPLYVARRLLAIASEDIGNADPNAMTVALNAWDCFHRVGPAEGERAIAQAVIYLASAPKSNAVYTAFKAARVLARETGNAPVPNHLRNAPTKLMSELGVGEGYRYAHDEDGAFAAGENYFPEVLQHSRIYQPTARGFEKRIRDKLAHLDALNQQSGRKRYE”, for which the “soluble on expression in E. coli” value was “not soluble”.

With “MFYPDPFDVIIIGGGHAGTEAAMAAARMGQQTLLLTHNIDTLGQMSCNPAIGGIGKGHLVKEVDALGGLMAKAIDQAGIQFRILNASKGPAVRATRAQADRVRYRQAVRTALENQPNLMIFQQAVEDLIVENDRVVGAVTQMGLKFRAKAVVLTVGTFLDGKIHIGLDNYSGGRAGDPPSIPLSRRLRELPLRVGRLKTGTPPRIDARTIDFSVLAQQHGDNPMPVFSFMGNASLHPQQVPCYITHTNEKTHDVIRSNLDRSPMYAGVIEGVGPRYCPSIEDKVMRFADRNQHQIFLEPEGLTSNEIYPNGISTSLPFDVQMQIVRSMQGMENAKIVRPGYAIEYDFFDPRDLKPTLESKFIQGLFFAGQINGTTGYEEAAAQGLLAGLNAARLSADKEGWAPARSQAYLGVLVDDLCTLGTKEPYRMFTSRAEYRLMLREDNADLRLTEIGRELGLVDDERWARFNEKLENIERERQRLKSTWVTPSAEAAAEVNAHLTAPLSREASGEDLLRRPEMTYEKLTTLTPFAPALTDEQAAEQVEIQVKYEGYIARQQDEIEKQLRNENTLLPATLDYRQISGLSNEVIAKLNDHKPASIGQASRISGVTPAAISILLVWLKKQGMLRRSA”, the “soluble on expression in E. coli” value was “not soluble”.

Turning to “MVHYKLTYFNARGLAEISRQLFHMAGVEFEDERINEEKFSQLKPTFPSGQVPILCIDGAQFSQSTAIARYLARKFGFVGQTAEEELQADEVVDTFKDFIESFRKFVIAVLSGESEEILKNIREEVIKPAVKTYTAYLKAILEKSSSGYLVGNELTWADLVIADNLTTLINAELLDIENDKLLKEFREKIIETPKLKEWLAKRPETRF”, the “soluble on expression in E. coli” value is reported as “not soluble”.

For “AQELQTANEFTVHTDLSSISSTRAFLKEKHKAAKHIGVRADIPFDANQGIRLEAGFGRSKKNIINLETDENKLGKTKNVKLPTGVPENRIDLYTGYTYTQTLSDSLNFRVGAGLGFESSKDSIKTTKHTLHSSRQSWLAKVHADLLSQLGNGWYINPWSEVKFDLNSRYKLNTGVTNLKKDINQKTNGWGFGLGANIGKKLGESASIEAGPFYKQRTYKESGEFSVTTKSGDVSLTIPKTSIREYGLRVGIKF”, the “soluble on expression in E. coli” value was “soluble”.

In the case of “MNFTDTHCHLADPALRENLPHILTAARKVGVKRFIVPATRPQDWQDVADLAEMPSEHGQIRIALGIHPWFSDGIAERDFVRLETMLAHYPQAWVGEIGLDFYDKTQTSQQRERQIQVFVRQLEIAQTLRRRVIIHNLKATADIAAAVKQTGFAQGGIVHAFSGSAEEARVLTKLGFKIGIGSLLLNPNARKVRDTLKALNDGDFVLETDSPFMLKKEINTPANIPGIAKIAAEIRGTCVEEIAKVTERNADALLGR”, the “soluble on expression in E. coli” value is given as “not soluble”.
